Data on eight molecules can be found in patent US20220324953A1 (JIANGSU HENGRUI MEDICINE, published 2022).

In test [1] the target is T1, human CTGF (antigen of the Biacore assays) (human, UniProt P29279 27-349).
T1 construct: also called antigen human CTGF; human CTGF protein
T1 sequence (looked up): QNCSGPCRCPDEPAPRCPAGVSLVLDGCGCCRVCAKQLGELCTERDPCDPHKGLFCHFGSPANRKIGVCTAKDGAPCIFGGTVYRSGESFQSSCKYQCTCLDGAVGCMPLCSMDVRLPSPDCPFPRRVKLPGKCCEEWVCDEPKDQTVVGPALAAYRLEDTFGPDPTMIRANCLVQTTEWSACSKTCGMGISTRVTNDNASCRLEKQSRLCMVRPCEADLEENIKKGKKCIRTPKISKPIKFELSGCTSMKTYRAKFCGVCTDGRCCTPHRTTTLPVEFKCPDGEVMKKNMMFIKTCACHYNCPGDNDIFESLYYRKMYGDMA
Nature of the test: Biacore, antibody captured on Protein A, CTGF in flow, 1:1 fit. The procedure, abridged:
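Antibodies captured on a Protein A chip, with human or mouse CTGF flowed over in HBS-EP running buffer; association and dissociation recorded in real time. Surface regenerated with glycine-HCl pH 1.5 between cycles; kinetics fitted to a 1:1 model.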
For orientation: SPR reads the build-up and loss of mass on a sensor chip optically.

The target of test [2] is T2, human CTGF protein (R&D, Cat No. 9190-CC) (human, UniProt P29279 27-349).
T2 construct: Bought protein; also called CTGF recombinant protein; CTGF (R&D)
T2 sequence: T1 sequence (looked up) with H57D
The test can be described thus: ELISA, plate coated with CTGF (R&D 9190-CC). Here is the method: The binding activity of anti-human CTGF antibody to human CTGF protein was tested by ELISA assay and Biacore. A 96-well microtiter plate was directly coated with the CTGF recombinant protein. The signal strength upon the addition of the antibody was used to determine the binding activity of the antibody to CTGF. The specific experimental procedures were as follows:
The CTGF protein (R&D, Cat No. 9190-CC) was diluted with PBS, pH 7.4 (Shanghai Yuanpei, Cat No. B320) buffer to a concentration of 0.2 μg/ml, 50 μl/well of which was added into the 96-well microtiter plate (Corning, Cat No. CLS3590-100EA), and incubated in an incubator at 37° C. for 2 hours or at 4° C. overnight (16-18 hours). The liquid was removed, 250 μl/ well blocking solution (5% skim milk (BD skim milk, Cat No.232100) diluted in PBS) was added, and incubated in an incubator at 37° C. for 3 hours or at 4° C. overnight (16-18 hours) for blocking. After the blocking was finished, the blocking solution was removed, the plate was washed for 5 times with PBST buffer (PBS containing 0.1% Tween-20, pH 7.4), 50 μl/well of various concentrations of each of the test antibodies (antibodies purified from hybridoma or humanized antibodies) diluted with sample dilution solution were added, and incubated in an incubator at 37° C. for 1 hours. After the incubation was finished, the plate was washed for 3 times with PBST, 50 μl/well of HRP-labeled goat anti-mouse secondary antibody (Jackson Immuno Research, Cat No. 115-035-003) or goat anti-human secondary antibody (Jackson Immuno Research, Cat No. 109-035-003) diluted with sample dilution solution was added, and incubated at 37° C. for 1 hour. The plate was washed for 3 times with PBST, 50 μl/well of TMB chromogenic substrate (KPL, Cat No. 52-00-03) was added, incubated at room temperature for 5-10min, and 50 μl/well of 1 M H₂SO₄ was added to stop the reaction. The absorbance value was read by a microplate reader (Molecular Devices, VERSA max) at a wavelength of 450 nm, and the data was analyzed with GraphPad Prism 5. The binding of CTGF antibody to human CTGF protein was calculated as EC50 value.
In general terms: An ELISA detects its analyte on a solid surface through an enzyme-linked reagent.

Changes are numbered by the printed parent chain.

B1: Hu164-67wl (antibody, human IgG1, lambda)
heavy: not shown
light: ETVVTQEPSLTVSPGGTVTLTCRSSIGAVTTSNYANWVQQKPGQAFRGLIGGTSNRAPWTPARFSGSLLGGKAALTLSGVQPEDEAEYYCALWYSTHYVFGGGTKLTVLGQPKANPTVTLFPPSSEELQANKATLVCLISDFYPGAVTVAWKADGSPVKAGVETTKPSKQSNNKYAASSYLSLTPEQWKSHRSYSCQVTHEGSTVEKTVAPTEC
Regarding B1, in test [1], the affinity, expressed as Kd, was 0.0379 nM; the koff (as a rule, the first-order rate constant of dissociation) turned out to be 0.00196 s⁻¹; the kon (in general, the rate constant with which the complex forms) is 5.17e+07 M⁻¹ s⁻¹. The EC50 (usually the concentration that produces a half-maximal response) in test [2] is 0.044 nM.

B2: Hu164-57wl (antibody, human IgG1, lambda, V domains shown)
VH: EVTLKESGPVLVKPTETLTLTCTVSGFSLSTFGVHWIRQPPGKALEWLAVIWRRGGTDYNAAFMSRLTISKDTSKSQVVLTMTNMDPVDTATYYCARDGGFDYWGQGTTVTVSS
VL: ETVVTQEPSLTVSPGGTVTLTCRSSIGAVTTSNYANWVQQKPGQAFRGLIGGTSNRAPWTPARFSGSLLGGKAALTLSGVQPEDEAEYYCALWYSTHYVFGGGTKLTVLG
B2: in test [1], the Kd – broadly, the constant that tells how readily two partners part at equilibrium – was found to be 0.0691 nM; the off-rate constant (koff) was determined as 0.00294 s⁻¹; the on-rate constant (kon) is 4.26e+07 M⁻¹ s⁻¹. This molecule also gave a 50% effective concentration (EC50) in test [2] of 0.044 nM.

B3: Hu164-87wl (antibody, human IgG1, lambda, V domains shown)
VH: EVQLQESGPGLVKPSQTLSLTCTVSGFSISTFGVHWIRQHPGKGLEWLGVIWRRGGTDYNAAFMSRLTISKDTSKNQVSFKLSSVTAADTAVYYCARDGGFDYWGQGTTVTVSS
VL: B2 VL
In test [1], B3 yielded a Kd of 0.194 nM, a koff of 0.0204 s⁻¹ and a kon of 1.05e+08 M⁻¹ s⁻¹. In test [2], this molecule gave an EC50 of 0.055 nM.

B4: Hu147-12wk (antibody, human IgG1, kappa, V domains shown)
VH: EVQLVESGGGLVQPGGSLRLSCAASGFTFSTYAMNWVRQAPGKGLEWVGRIRTKSNNYATYYADSVKDRFTISRDDSKNSLYLQMNSLKTEDTAVYYCVETGFAYWDQGTLVTVSS
VL: EIVLTQSPATLSLSPGERATLSCSASSSVSYMHWFQQKPGQSPKLLIYSTSNLASGIPARFSGSGSGTDYTLTISSLEPEDFAVYYCQQRSSYPLTFGQGTKLEIKR
Take B4: in test [1], the equilibrium dissociation constant (Kd) is 0.969 nM, the koff was 0.033 s⁻¹ and the kon came out at 3.41e+07 M⁻¹ s⁻¹. This molecule also displayed a concentration for a half-maximal effect (EC50) in test [2] of 0.046 nM.

B5: Hu147-14wk (antibody, human IgG1, kappa, V domains shown)
VH: B4 VH
VL: DIQMTQSPSSLSASVGDRVTITCSASSSVSYMHWFQQKPGKSPKLLIYSTSNLASGVPSRFSGSGSGTDYTLTISSLQPEDFATYYCQQRSSYPLTFGQGTKLEIKR
In the case of B5, in test [1], the Kd was 1.13 nM, the off-rate (koff) came to 0.0554 s⁻¹ and the on-rate constant (kon) amounted to 4.89e+07 M⁻¹ s⁻¹. Moreover, in test [2], the half-maximal effective concentration (EC50) was 0.073 nM.

B6: Hu147-34wk (antibody, human IgG1, kappa, V domains shown)
VH: B4 VH with T28S, S30N, G49A, K78E, N79S
VL: B5 VL
In test [1], B6 registered a Kd of 1.05 nM, a koff of 0.0155 s⁻¹ and a kon of 1.47e+07 M⁻¹ s⁻¹. In test [2], this molecule came in with a concentration giving a half-maximal response (EC50) of 0.134 nM.

B7: Hu164-68wl (antibody, human IgG1, lambda, V domains shown)
VH: B2 VH with A44G, A49G, L80F
VL: ETVVTQEPSFSVSPGGTVTLTCRSSIGAVTTSNYANWVQQTPGQAFRGLIGGTSNRAPGVPDRFSGSILGNKAALTITGAQADDESDYYCALWYSTHYVFGGGTKLTVLG
In test [1], B7 yielded a Kd of 0.302 nM, a koff of 0.0116 s⁻¹ and an association rate constant (kon) of 3.84e+07 M⁻¹ s⁻¹. In test [2], this molecule gave a concentration for a half-maximal effect (EC50) of 0.069 nM.

B8: Hu164-69wl (antibody, human IgG1, lambda, V domains shown)
VH: B2 VH with A44G, A49G, L80F
VL: ESVVTQPPSVSGAPGQRVTISCRSSIGAVTTSNYANWVQQLPGTAFKGLIGGTSNRAPGVPDRFSGSKSGTSASLAITGLQAEDEADYYCALWYSTHYVFGGGTKLTVLG
In test [1], B8 had a dissociation constant Kd of 0.322 nM, a dissociation rate constant (koff) of 0.028 s⁻¹ and an association rate constant (kon) of 8.71e+07 M⁻¹ s⁻¹. Besides, a half-maximal effect in test [2] (EC50) was put at 0.063 nM.
